Biological target: GST-tagged Rheb-G63V expressed in HEK293T (UniProt Q15382)
Assay: GST pull-down and immunoblotting, band intensity quantified
Settings: HEK293T cells, transient co-expression; mean ± SEM (n = 3); parent: est. 1.0; read off a plot

GST-tagged Rheb-G63V expressed in HEK293T, sequence (Q15382 whole entry G63V): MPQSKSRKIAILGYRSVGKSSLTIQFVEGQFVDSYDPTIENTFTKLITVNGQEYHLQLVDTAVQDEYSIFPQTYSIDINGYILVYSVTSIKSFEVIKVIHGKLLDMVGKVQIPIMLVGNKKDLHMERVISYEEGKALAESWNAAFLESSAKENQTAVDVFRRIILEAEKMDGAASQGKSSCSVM
SFB-tagged ATP6AP1 (wild type, full length), sequence (Q15904 42-470 I469del/V470del): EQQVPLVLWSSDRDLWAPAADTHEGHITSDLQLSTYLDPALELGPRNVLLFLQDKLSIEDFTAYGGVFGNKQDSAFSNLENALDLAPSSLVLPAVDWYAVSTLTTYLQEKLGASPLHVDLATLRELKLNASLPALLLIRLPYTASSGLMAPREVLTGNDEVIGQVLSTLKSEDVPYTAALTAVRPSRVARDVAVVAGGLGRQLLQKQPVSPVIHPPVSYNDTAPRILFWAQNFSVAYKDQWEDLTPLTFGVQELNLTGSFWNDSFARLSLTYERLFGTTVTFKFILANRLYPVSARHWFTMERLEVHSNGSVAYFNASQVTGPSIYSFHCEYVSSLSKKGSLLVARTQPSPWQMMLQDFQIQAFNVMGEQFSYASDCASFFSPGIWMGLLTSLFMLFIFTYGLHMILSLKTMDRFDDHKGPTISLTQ

- ratio to parent (relative to ATP6AP1): 0.77
Substance: SFB-tagged ATP6AP1 (wild type, full length) (from UniProt Q15904) I469del; V470del
